B1: DVL3 (parent)
chain: FCADNPSELPPPMERTGGIGDSRP
B2: KIAA1161 (parent)
chain: FMPAMQFSIPPWRYDAEVVAIAQK

Variants of: B1
Experiment: protein stability index of a GFP-peptide fusion (GPS, HEK-293T) (PSI 1-6); higher = more stable
Details: c terminus: a fixed tail appended
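Note: lentivirally expressed fusions sorted by FACS into six bins by GFP to DsRed ratio, PSI derived from sequencing read proportions per bin multiplied by bin number.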

Protein stability index of substitutions, site by site:
L9: Q 4.16; C 4.79; V 4.82; Y 4.11; E 5.34; H 4.66; N 5.1; R 4.32; M 4.34; I 4.53; S 4.99; K 4.66; F 4.44
N5: I 4.21; T 4.42; Y 3.62; K 4.29; E 4.8; S 4.78; D 4.92; A 4.31; F 2.65; V 4.58; G 4.46; L 3.32; W 3.23; H 3.81; Q 4.45; M 4.57
M13: A 5.31; D 4.98; F 4.6; C 4.22; E 5.18
A3: I 4.25; N 4.79; P 4.17; V 4.78; Q 3.45; E 5.23; C 4.13; H 4.37; T 4.29; W 3.64; F 3.56; S 4.81; K 4.34; M 4.48; Y 4.49; D 5.11
P11: E 4.05; F 3.83; M 4.45; Q 4.54; Y 4.23; A 5.1; D 4.74; L 4.64; C 4.33; N 4.26; W 3.64; V 3.94; G 4.16; R 3.91; H 4.43; T 5.12; S 4.58; I 4.54
D4: M 3.26; E 5; T 4.29; W 2.06; A 4.19; V 3.79; N 3.96; I 3.71; L 3.83; K 2.85; G 4.37; Y 3.98; S 4.25; H 4.27; Q 3.36; F 3.08; R 4.36
S7: R 3.58; M 4.3; C 3.85; I 4.19; D 5.04; K 4.98; L 4.57; F 4.24; T 4.22; Y 3.81; N 4.45; V 4.14; E 5.11; A 4.57; G 4.01
P12: Y 3.63; D 5.2; C 4.07; T 3.99; A 5.55; H 4.61; S 4.07; N 4.69; L 4.63; I 3.76; Q 4.75; K 4.69; R 3.93; E 4.89; F 3.41; W 1.75; G 4.39; M 4.19; V 4.62
P10: W 3.13; R 4.08; E 2.94; S 4.38; Q 4.27; A 4.29; Y 3.74; I 3.81; G 4.13; V 4.49; K 4.37; D 4.81; N 4.54; F 3.41; T 4.61; C 3.81; M 4.54; L 4.32; H 4.3
P6: I 3.73; F 4.38; N 4.61; V 4.27; Y 4.27; T 3.99; S 3.95; D 4.03; L 3.88; A 4.71; W 2.33; K 4.33; Q 4.95; G 3.85; M 3.8; H 4.08; E 4.64; R 4.19
F1: V 5.18; Y 4.89; S 4.94; H 5.25; L 4.63; G 5.33; E 5.12; Q 4.83; A 5.49; N 5.58; P 5.44; K 4.86; W 4.26; M 3.45; T 4.99; D 5.43; I 5.05; C 3.99; R 4.68
E8: N 4.26; S 4.63; Y 3.25; F 2.6; D 4.39; M 3.49; G 4.37; H 3.95; I 3.88; R 3.05; A 4.36; P 4.14; W 2.03; T 4.02; Q 2.77; K 3.47; L 3.67; C 4.06
C2: M 4.71; F 4.31; L 5; N 4.43; P 4.73; V 3.27; I 4.71; K 4.68; H 4.36; S 5; A 4.77; T 5.06; Y 4.75; D 5.46; W 3.44; R 4.58; G 4.83

Variants of: B2
Experiment: as above
Details: c terminus: a fixed tail appended

Protein stability index, by site and new letter:
A20: C 2.22; P 2.16; F 2.54; G 1.98; W 1.04; Q 2.41; E 2.42
A4: Q 1.97; T 1.76; M 1.86; N 1.56; D 3.44; G 2.34; H 2.68
I21: L 1.93; P 2.16; G 2.66; E 2.6
I9: A 2; T 1.8; S 2.08; P 1.93; H 2.35; Y 2.83; K 1.84; N 2.28
W12: L 2.23; P 2.74; G 2.76; F 2.26; T 2.44
V19: P 4.1; M 1.81; F 2.48; K 1.99; L 1.47; E 2.42
F1: G 2.04; D 3.37; R 3.23; Q 3.2; Y 1.82
Q23: H 1.66; F 1.35; W 2.74; S 1.52; P 1.99; K 2.2; M 3.29
A16: G 1.2; K 1.59; E 1.97; I 3.3; T 3.04; P 2.08; R 2.65
M2: C 1.97; N 1.61; D 3.16
Y14: F 1.63; D 2.2; M 2.25
V18: M 1.88; C 1.86; T 1.88
E17: K 2.66; A 1.2
F7: Y 1.7; P 2.08; N 2.24; S 1.6; T 2.24; L 1.82; D 2.9; W 1.68
P3: L 2.22; N 2.39; V 2.33; Q 1.28
P11: S 2.03; Q 1.78; L 2.24; V 1.01; A 1.61
D15: E 2.5; Y 3.05; N 3.08; P 1.17; Q 1.94
K24: M 1.33; T 1.63
S8: P 2.1; Q 2.11; N 2.7; T 1.64; L 2.05; D 1.54; K 2.93
M5: L 2.25; Q 2.24; V 2.23; D 1.48; K 1.95; E 2.81
P10: L 2.99; G 1.33; T 2; E 2.5; Q 1.64; I 2.86; S 2.42
R13: V 1.16; E 2.48; G 1.53; T 2.02; N 2.51
Q6: V 3.24; F 1.4; N 2.66; T 1.55; S 1.83
A22: T 2.51; D 1.96; S 1.94
